This is an account of results in patent US20240175869A1 (BROWN UNIVERSITY, published 2024).

In assay [1] the target is T1, ALK6.
T1 construct: Soluble ALK6 titrated at 3.125-100 nM over immobilized MuSK constructs; That is inferred from the anti-human IgG Fc detection antibody; also called BMPR1b; BMPR1B
Put plainly: solid-phase binding assay, ALK6 at 100 nM, FL ECD against ΔIg2 (FIG. 7).

For assay [2], the target named is T1, ALK6. The assay is described as follows: solid-phase binding assay, half max as printed (FIG. 9).

T1 sequence (O00238 whole entry, the tested form may be a part): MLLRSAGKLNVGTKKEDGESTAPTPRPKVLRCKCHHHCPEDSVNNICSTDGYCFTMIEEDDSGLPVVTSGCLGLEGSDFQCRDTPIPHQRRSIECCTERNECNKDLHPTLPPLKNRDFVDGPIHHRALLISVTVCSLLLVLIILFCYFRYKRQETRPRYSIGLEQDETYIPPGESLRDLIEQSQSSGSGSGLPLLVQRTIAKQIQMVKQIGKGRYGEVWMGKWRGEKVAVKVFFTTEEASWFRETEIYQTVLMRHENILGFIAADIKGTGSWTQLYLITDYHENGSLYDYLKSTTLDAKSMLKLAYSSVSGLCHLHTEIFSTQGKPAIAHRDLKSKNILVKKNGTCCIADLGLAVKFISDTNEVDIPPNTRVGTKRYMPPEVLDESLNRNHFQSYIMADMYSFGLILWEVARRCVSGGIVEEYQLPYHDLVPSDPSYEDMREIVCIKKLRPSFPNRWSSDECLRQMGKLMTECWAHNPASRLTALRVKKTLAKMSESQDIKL

B1: full-length ectodomain (FL ECD) of MuSK, His-tagged (receptor)
chain: EKLPKAPVITTPLETVDALVEEVATFMCAVESYPQPEISWTRNKILIKLFDTRYSIRENGQLLTILSVEDSDDGIYCCTANNGVGGAVESCGALQVKMKPKITRPPINVKIIEGLKAVLPCTTMGNPKPSVSWIKGDSALRENSRIAVLESGSLRIHNVQKEDAGQYRCVAKNSLGTAYSKLVKLEVEVFARILRAPESHNVTFGSFVTLRCTAIGMPVPTISWIENGNAVSSGSIQENVKDRVIDSRLQLFITKPGLYTCIATNKHGEKFSTAKAAATVSIAEWSKSQKESKGYCAQYRGEVCDAVLVKDSLVFFNTSYPDPEEAQELLIHTAWNELKAVSPLCRPAAEALLCNHLFQECSPGVLPTPMPICREYCLAVKELFCAKEWLAMEGKTHRGLYRSGMHFLPVPECSKLPSMHQDPTACTRLPYLDYKKENITTFPSITSSKPSVDIPNLPASTSSFAVSPAYSMT
Turning to B1, the “fold increase in absorbance against ΔIg2 MuSK” value in assay [1] is 6.6 fold. The molecule also displayed a concentration giving a half-maximal response (EC50) in assay [2] of about 0.5 nM.
